Source: US20090105152A1
Square brackets hold non-standard residues; d marks the D form. Primed or numbered codes have the meaning given here. Ends that are not written are not given here. Phe(4-Cl) = N[C@@H](Cc1ccc(Cl)cc1)C(=O)O; Phe(3-F) = N[C@@H](Cc1cccc(F)c1)C(=O)O; Pzc(2) = piperazine-2-carboxylic acid; Phe(2-F) = N[C@@H](Cc1ccccc1F)C(=O)O; Arg(Me) = CNC(=N)NCCC[C@H](N)C(=O)O; Hyp = O=C(O)[C@@H]1C[C@@H](O)CN1; Ahx = NCCCCCC(=O)O; azaGly = NNC(=O)O

Biological target: human OT7T175 (metastin receptor) (human) (UniProt Q969F8)
Sequence (Q969F8 whole entry L364H): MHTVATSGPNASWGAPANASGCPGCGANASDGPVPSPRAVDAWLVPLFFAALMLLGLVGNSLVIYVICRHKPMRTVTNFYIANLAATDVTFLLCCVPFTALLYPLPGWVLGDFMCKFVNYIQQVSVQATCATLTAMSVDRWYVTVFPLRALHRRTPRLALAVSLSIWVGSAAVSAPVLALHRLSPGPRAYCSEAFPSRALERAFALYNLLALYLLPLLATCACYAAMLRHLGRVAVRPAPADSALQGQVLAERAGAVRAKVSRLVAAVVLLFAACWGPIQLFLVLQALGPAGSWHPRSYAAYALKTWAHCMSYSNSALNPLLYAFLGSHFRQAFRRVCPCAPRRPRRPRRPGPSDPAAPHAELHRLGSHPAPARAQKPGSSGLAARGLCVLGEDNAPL
Test: cell-based or functional assay

| Binder | intracellular Ca ion level-increasing activity [specific activity to Metastin (1-54)] (relative to Metastin (1-54)) |
| --- | --- |
| Ac-[dY][Hyp]NT[Phe(2-F)][azaGly]L[Arg(Me)]W-NH2 (SMILES CNC(=N)NCCC[C@H](NC(=O)[C@H](CC(C)C)NC(=O)NNC(=O)[C@H](Cc1ccccc1F)NC(=O)[C@@H](NC(=O)[C@H](CC(N)=O)NC(=O)[C@@H]1C[C@@H](O)CN1C(=O)[C@@H](Cc1ccc(O)cc1)NC(C)=O)[C@@H](C)O)C(=O)N[C@@H](Cc1c[nH]c2ccccc12)C(N)=O) [des(1)-Ac-[D-Tyr2,Hyp3,Thr5,Phe(2F)6,AzaGly7,Arg(Me)9,Trp10]MS10] | 6.4 |
| Ac-[dY]KNT[Phe(4-Cl)][azaGly]L[Arg(Me)]W-NH2 (SMILES CNC(=N)NCCC[C@H](NC(=O)[C@H](CC(C)C)NC(=O)NNC(=O)[C@H](Cc1ccc(Cl)cc1)NC(=O)[C@@H](NC(=O)[C@H](CC(N)=O)NC(=O)[C@H](CCCCN)NC(=O)[C@@H](Cc1ccc(O)cc1)NC(C)=O)[C@@H](C)O)C(=O)N[C@@H](Cc1c[nH]c2ccccc12)C(N)=O) [des(1)-Ac-[D-Tyr2,Lys3,Thr5,Phe(4Cl)6,AzaGly7,Arg(Me)9,Trp10]MS10] | 1.8 |
| Ac-[dY]ENT[Phe(4-Cl)][azaGly]L[Arg(Me)]W-NH2 (SMILES CNC(=N)NCCC[C@H](NC(=O)[C@H](CC(C)C)NC(=O)NNC(=O)[C@H](Cc1ccc(Cl)cc1)NC(=O)[C@@H](NC(=O)[C@H](CC(N)=O)NC(=O)[C@H](CCC(=O)O)NC(=O)[C@@H](Cc1ccc(O)cc1)NC(C)=O)[C@@H](C)O)C(=O)N[C@@H](Cc1c[nH]c2ccccc12)C(N)=O) [des(1)-Ac-[D-Tyr2,Glu3,Thr5,Phe(4Cl)6,AzaGly7,Arg(Me)9,Trp10]MS10] | 1.9 |
| [Ahx]NTF[azaGly]L[Arg(Me)]W-NH2 (N-terminus assumed; SMILES CNC(=N)NCCC[C@H](NC(=O)[C@H](CC(C)C)NC(=O)NNC(=O)[C@H](Cc1ccccc1)NC(=O)[C@@H](NC(=O)[C@H](CC(N)=O)NC(=O)CCCCCN)[C@@H](C)O)C(=O)N[C@@H](Cc1c[nH]c2ccccc12)C(N)=O) [des(1-2)-[Acp3,Thr5,AzaGly7,Arg(Me)9,Trp10]MS10] | 8.9 |

Now from value to binder:

| intracellular Ca ion level-increasing activity [specific activity to Metastin (1-54)] (relative to Metastin (1-54)) | Binder |
| --- | --- |
| 2.4 | Ac-[dY]KNT[Phe(3-F)][azaGly]L[Arg(Me)]W-NH2 (SMILES CNC(=N)NCCC[C@H](NC(=O)[C@H](CC(C)C)NC(=O)NNC(=O)[C@H](Cc1cccc(F)c1)NC(=O)[C@@H](NC(=O)[C@H](CC(N)=O)NC(=O)[C@H](CCCCN)NC(=O)[C@@H](Cc1ccc(O)cc1)NC(C)=O)[C@@H](C)O)C(=O)N[C@@H](Cc1c[nH]c2ccccc12)C(N)=O) [des(1)-Ac-[D-Tyr2,Lys3,Thr5,Phe(3F)6,AzaGly7,Arg(Me)9,Trp10]MS10] |
| 2.7 | Ac-[dY]ENT[Phe(3-F)][azaGly]L[Arg(Me)]W-NH2 (SMILES CNC(=N)NCCC[C@H](NC(=O)[C@H](CC(C)C)NC(=O)NNC(=O)[C@H](Cc1cccc(F)c1)NC(=O)[C@@H](NC(=O)[C@H](CC(N)=O)NC(=O)[C@H](CCC(=O)O)NC(=O)[C@@H](Cc1ccc(O)cc1)NC(C)=O)[C@@H](C)O)C(=O)N[C@@H](Cc1c[nH]c2ccccc12)C(N)=O) [des(1)-Ac-[D-Tyr2,Glu3,Thr5,Phe(3F)6,AzaGly7,Arg(Me)9,Trp10]MS10] |
| 1.5 | Ac-[dY]WNT[Phe(2-F)][azaGly]L[Arg(Me)]W-NH2 (SMILES CNC(=N)NCCC[C@H](NC(=O)[C@H](CC(C)C)NC(=O)NNC(=O)[C@H](Cc1ccccc1F)NC(=O)[C@@H](NC(=O)[C@H](CC(N)=O)NC(=O)[C@H](Cc1c[nH]c2ccccc12)NC(=O)[C@@H](Cc1ccc(O)cc1)NC(C)=O)[C@@H](C)O)C(=O)N[C@@H](Cc1c[nH]c2ccccc12)C(N)=O) [des(1)-Ac-[D-Tyr2,Trp3,Thr5,Phe(2F)6,AzaGly7,Arg(Me)9,Trp10]MS10] |
| 1.7 | Ac-[dY][Pzc(2)]NTF[azaGly]L[Arg(Me)]W-NH2 [des(1)-Ac-[D-Tyr2,Pzc(2)3,Thr5,AzaGly7,Arg(Me)9,Trp10]MS10] |
